{"source": "patent US20200131230A1", "about": "(published 2020)", "target": "Thrombospondin human platelet (Calbiochem, 605225) (human, UniProt P07996 19-1170)", "sequence (P07996 19-1170 limits assumed)": "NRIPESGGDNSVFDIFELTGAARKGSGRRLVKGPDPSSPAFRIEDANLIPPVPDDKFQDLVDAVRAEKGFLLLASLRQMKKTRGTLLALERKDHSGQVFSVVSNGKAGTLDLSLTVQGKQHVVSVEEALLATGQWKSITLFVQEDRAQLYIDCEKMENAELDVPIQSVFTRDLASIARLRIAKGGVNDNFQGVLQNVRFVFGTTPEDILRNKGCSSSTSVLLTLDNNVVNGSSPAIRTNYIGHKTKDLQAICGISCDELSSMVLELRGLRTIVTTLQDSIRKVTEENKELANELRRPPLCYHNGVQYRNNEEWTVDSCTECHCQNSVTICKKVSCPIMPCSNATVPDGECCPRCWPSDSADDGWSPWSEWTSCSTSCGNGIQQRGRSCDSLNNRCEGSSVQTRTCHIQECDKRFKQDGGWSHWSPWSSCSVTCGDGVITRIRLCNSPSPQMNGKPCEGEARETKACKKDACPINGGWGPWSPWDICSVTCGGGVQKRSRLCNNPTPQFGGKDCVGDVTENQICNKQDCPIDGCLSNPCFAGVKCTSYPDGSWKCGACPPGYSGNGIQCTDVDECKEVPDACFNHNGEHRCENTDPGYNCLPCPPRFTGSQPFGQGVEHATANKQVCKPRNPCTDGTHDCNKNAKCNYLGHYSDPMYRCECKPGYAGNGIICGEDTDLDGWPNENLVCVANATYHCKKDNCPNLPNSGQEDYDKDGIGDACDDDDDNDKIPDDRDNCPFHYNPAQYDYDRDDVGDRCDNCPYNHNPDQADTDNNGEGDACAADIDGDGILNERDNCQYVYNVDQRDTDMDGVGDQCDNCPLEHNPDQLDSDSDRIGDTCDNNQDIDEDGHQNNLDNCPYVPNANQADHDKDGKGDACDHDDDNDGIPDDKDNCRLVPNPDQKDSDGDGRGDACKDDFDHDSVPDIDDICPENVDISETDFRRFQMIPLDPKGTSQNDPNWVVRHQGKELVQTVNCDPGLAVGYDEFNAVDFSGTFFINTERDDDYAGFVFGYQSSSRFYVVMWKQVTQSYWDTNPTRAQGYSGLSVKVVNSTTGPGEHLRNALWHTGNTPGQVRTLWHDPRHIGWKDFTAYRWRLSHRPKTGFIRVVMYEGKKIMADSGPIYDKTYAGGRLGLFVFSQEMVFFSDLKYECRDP", "assay": "cell-based or functional assay", "note": "Positions of bridges follow the written chain, without caps; N, C: chain ends. Non-standard residues stand in square brackets, D forms with d. 2Nal = N[C@@H](Cc1ccc2ccccc2c1)C(=O)O; Nle = CCCC[C@H](N)C(=O)O", "data": [{"binder": "{CH2CO}-[2Nal]RSGKNWVVWVC-NH2 (thioether N-12; SMILES CC(C)[C@@H]1NC(=O)[C@H](Cc2c[nH]c3ccccc23)NC(=O)[C@H](C(C)C)NC(=O)[C@H](C(C)C)NC(=O)[C@H](Cc2c[nH]c3ccccc23)NC(=O)[C@H](CC(N)=O)NC(=O)[C@H](CCCCN)NC(=O)CNC(=O)[C@H](CO)NC(=O)[C@H](CCCNC(=N)N)NC(=O)[C@H](Cc2ccc3ccccc3c2)NC(=O)CSC[C@@H](C(N)=O)NC1=O)", "note": "[Compound 98]", "values": [{"measurement": "Cell adhesion IC50", "value": 3.9, "unit": "nM"}]}, {"binder": "{CH2CO}-F[2Nal]ISGRDW[Nle]KWVC-NH2 (thioether N-13; SMILES CCCC[C@@H]1NC(=O)[C@H](Cc2c[nH]c3ccccc23)NC(=O)[C@H](CC(=O)O)NC(=O)[C@H](CCCNC(=N)N)NC(=O)CNC(=O)[C@H](CO)NC(=O)[C@H]([C@@H](C)CC)NC(=O)[C@H](Cc2ccc3ccccc3c2)NC(=O)[C@H](Cc2ccccc2)NC(=O)CSC[C@@H](C(N)=O)NC(=O)[C@H](C(C)C)NC(=O)[C@H](Cc2c[nH]c3ccccc23)NC(=O)[C@H](CCCCN)NC1=O)", "note": "[Compound 87]", "values": [{"measurement": "Cell adhesion IC50", "value": 15.8, "unit": "nM"}]}, {"binder": "{CH2CO}-L[2Nal]ISGRDW[Nle]KWVC-NH2 (thioether N-13; SMILES CCCC[C@@H]1NC(=O)[C@H](Cc2c[nH]c3ccccc23)NC(=O)[C@H](CC(=O)O)NC(=O)[C@H](CCCNC(=N)N)NC(=O)CNC(=O)[C@H](CO)NC(=O)[C@H]([C@@H](C)CC)NC(=O)[C@H](Cc2ccc3ccccc3c2)NC(=O)[C@H](CC(C)C)NC(=O)CSC[C@@H](C(N)=O)NC(=O)[C@H](C(C)C)NC(=O)[C@H](Cc2c[nH]c3ccccc23)NC(=O)[C@H](CCCCN)NC1=O)", "note": "[Compound 82]", "values": [{"measurement": "Cell adhesion IC50", "value": 29.9, "unit": "nM"}]}, {"binder": "{CH2CO}-T[2Nal]ISGRDW[Nle]KWVC-NH2 (thioether N-13; SMILES CCCC[C@@H]1NC(=O)[C@H](Cc2c[nH]c3ccccc23)NC(=O)[C@H](CC(=O)O)NC(=O)[C@H](CCCNC(=N)N)NC(=O)CNC(=O)[C@H](CO)NC(=O)[C@H]([C@@H](C)CC)NC(=O)[C@H](Cc2ccc3ccccc3c2)NC(=O)[C@H]([C@@H](C)O)NC(=O)CSC[C@@H](C(N)=O)NC(=O)[C@H](C(C)C)NC(=O)[C@H](Cc2c[nH]c3ccccc23)NC(=O)[C@H](CCCCN)NC1=O)", "note": "[Compound 85]", "values": [{"measurement": "Cell adhesion IC50", "value": 15.5, "unit": "nM"}]}, {"binder": "{CH2CO}-W[2Nal]ISGRDW[Nle]KWVC-NH2 (thioether N-13; SMILES CCCC[C@@H]1NC(=O)[C@H](Cc2c[nH]c3ccccc23)NC(=O)[C@H](CC(=O)O)NC(=O)[C@H](CCCNC(=N)N)NC(=O)CNC(=O)[C@H](CO)NC(=O)[C@H]([C@@H](C)CC)NC(=O)[C@H](Cc2ccc3ccccc3c2)NC(=O)[C@H](Cc2c[nH]c3ccccc23)NC(=O)CSC[C@@H](C(N)=O)NC(=O)[C@H](C(C)C)NC(=O)[C@H](Cc2c[nH]c3ccccc23)NC(=O)[C@H](CCCCN)NC1=O)", "note": "[Compound 89]", "values": [{"measurement": "Cell adhesion IC50", "value": 23.8, "unit": "nM"}]}, {"binder": "{CH2CO}-F[2Nal]ISGKDW[Nle]RWVC-NH2 (thioether N-13; SMILES CCCC[C@@H]1NC(=O)[C@H](Cc2c[nH]c3ccccc23)NC(=O)[C@H](CC(=O)O)NC(=O)[C@H](CCCCN)NC(=O)CNC(=O)[C@H](CO)NC(=O)[C@H]([C@@H](C)CC)NC(=O)[C@H](Cc2ccc3ccccc3c2)NC(=O)[C@H](Cc2ccccc2)NC(=O)CSC[C@@H](C(N)=O)NC(=O)[C@H](C(C)C)NC(=O)[C@H](Cc2c[nH]c3ccccc23)NC(=O)[C@H](CCCNC(=N)N)NC1=O)", "note": "[Compound 94]", "values": [{"measurement": "Cell adhesion IC50", "value": 25.1, "unit": "nM"}]}]}
